Series [1] in a line: Production of hydroxy-L-pipecolic acids by culture of recombinant E. coli expressing the hydroxylase (Example 5). It counts as cell-based, E. coli BL21 (DE3). The note with it: for Accumulation of (4R)-hydroxy-L-proline: 64 hours; for Accumulation amount of (4R)-hydroxy-L-proline / Accumulation amount of (4S)-hydroxy-L-pipecolic acid / Accumulation amount of L-pipecolic acid / Accumulation amount of (4S)-hydroxy-L-proline / Accumulation amount of (5S)-Hydroxy-L-pipecolic acid: 20 mmol/L L-pipecolic acid in medium, 30° C.; for Conversion of the substrate to (4S)-hydroxy-L-pipecolic acid: incubation for 64 hours; for Accumulation of (4S)-hydroxy-L-proline: 120 hours.

Series [2] can be described thus: Catalytic efficiency (kcat/Km) of L-pipecolic acid hydroxylases with L-proline (Example 3). The note with it: for hydroxy-L-proline detected from the reaction solution: L-proline as substrate, Example 3, in words; for Activity, Substrate: L-proline (cell spanning Km to kcat/Km): in words. It counts as biochemical. Here is the method: Each of the obtained recombinant E. coli strains in a volume of 0.6 mL was recovered by centrifugation and was suspended in 0.5 mL of 50 mmol/L MES (2-morpholinoethanesulfonic acid) buffer at pH 6. The container containing the suspension was placed in ice-water bath to perform sonication and then spun at 12,000 rpm. The obtained supernatant was used as an enzyme solution in Example 3.
Subsequently, 0.05 mL of 1 mol/L hydrochloric acid was added to stop the reaction.
The reaction using L-proline as a substrate was carried out under the same conditions as in the above reaction using L-pipecolic acid.
Then, each reaction solution was treated using 1-fluoro-2,4-dinitrophenyl-5-L-alaninamide (FDAA) (manufactured by Tokyo Chemical Industry Co., Ltd.) according to a method as described below, to obtain a FDAA-derivative of a hydroxy-L-pipecolic acid or hydroxy-L-proline included in each reaction solution.
To the reaction solution after stopping the reaction, 0.05 mL of 1 mol/L sodium hydroxide was added for neutralization. After centrifuging the solution at 12,000 rpm, 15 μL of 0.5 mol/L borate buffer (pH 9) was added to 15 μL of the obtained supernatant, followed by further addition of 30 μL of 20 mmol/L FDAA solution in acetone and incubation at 40° C. for one hour. Subsequently, 10 μL of 1 mol/L hydrochloric acid was added to stop the derivatization reaction. The resulting solution was diluted by adding 80 μL of methanol, and then centrifuged at 12,000 rpm. The obtained supernatant was used as a FDAA derivative solution.
The amount of produced hydroxy-L-pipecolic acid or hydroxy-L-proline was analyzed with UPLC-MS (manufactured by Waters Co.).
An aliquot containing 5 μg of total protein was taken from each enzyme solution obtained in Example 2, loaded on each lane, and then electrophoresed on polyacrylamide gel. The obtained electrophoretogram was analyzed using the image analysis software Image Lab3.0 (manufactured by Bio-Rad Laboratories, Inc.) to determine the content of each hydroxylase. A carbonic anhydrase (manufactured by Sigma-Aldrich Co. LLC) was used as a quantification reference. The content of a hydroxylase of interest was calculated from the signal intensity of the enzyme of interest, based on the signal intensities of bands corresponding to 200 ng, 400 ng and 600 ng of the quantification reference provided for the electrophoresis.
The catalytic efficiency of each enzyme was calculated based on the Michaelis-Menten kinetic equation.
It is known that, in FIG. 1, the reciprocal of each intercept with the x-axis, multiplied with −1, represents a km value (mmol/L) and the reciprocal of each intercept with the y-axis represents a Vmax value (U/mg), the maximum rate of reaction.
The catalytic ability per molecule of the enzyme (kcat) can be calculated from the Vmax and the molecular weight of the enzyme. Table 5 indicates the result of the calculation of catalytic efficiency (kcat/km), which is an index representing the catalytic ability of an enzyme, based on the obtained kcat and km values.

The nature of series [3]: Reactivity comparison of L-pipecolic acid 5-hydroxylases, substrate L-pipecolic acid (Example 4). As to conditions: 10 mmol/L substrate, 30° C., 30 minutes; hydroxy-L-pipecolic acid-producing activity set to 100.
Procedure: (§1) The detection of the products was based on the absorbance at a wavelength of 340 nm.
(§2) The activity values were evaluated by the amount of a product per gram of total protein (U/g-protein).
The nature of series [4]: Reactivity comparison of L-pipecolic acid 5-hydroxylases, substrate L-proline (Example 4). As to conditions: for Relative activity, Substrate: L-proline (hydroxy-L-proline-producing activity, 100 = hydroxy-L-pipecolic acid-producing activity): 10 mmol/L substrate, 30° C., 30 minutes; for hydroxy-L-proline detected from the reaction solution: Example 4, 10 mmol/L L-proline, in words.
Procedure: as §1, §2

This note sets out measurements from patent publication US12173330B2, “Method for producing hydroxy-L-pipecolic acid” (API CORPORATION, priority 2015, dated 2024).

B1: PcPH: L-pipecolic acid trans-4-hydroxylase from Penicillium chrysogenum Wisconsin 54-1255, GenBank XP_002558179, SEQ ID NO: 14 (protein, listed as Penicillium chrysogenum)
chain: MSQALDLSLLKGSPEERDEVSAALLDTLKTRGVAKLKNHGLPEDLIAEMFDYTRRFFSLSLEDKMTAKHPPEANPNRGYSYVGQESVSSISGYEKGLPQGKTIRDIKETLDMGSPHDSLVDNIWVAEEKLPGFRKFMEDFYESCFKVELEILDALAQALEISAPDLRLLHNKAENEFRLLHYPAVPASALEDGTATRIAEHTDFGTITMLFQDSTGGLQVEDQTNLGTFHDVVSGGKSEIILNIGDSLQRLTNDTFMAACHRVTYPPTVKVGSDVVIPERYSVAYFAKPNRIASLFPLKKFITPATPCKYEDITAWDYNNLRIAKLFS
On to B1, for which, in series [1] (in words), the “Accumulation of (4R)-hydroxy-L-proline” value is listed as “no accumulation of (4R)-hydroxy-L-proline was confirmed” and the “Conversion of the substrate to (4S)-hydroxy-L-pipecolic acid” value is on record as “a major amount of the substrate was allowed to convert to (4S)-hydroxy-L-pipecolic acid”. Besides, in series [1] (after 64 hours), the “Accumulation amount of (4R)-hydroxy-L-proline” value amounted to 0 mmol/L, the “Accumulation amount of (4S)-hydroxy-L-pipecolic acid” value is 17.4 mmol/L and the “Accumulation amount of L-pipecolic acid” value was 2.1 mmol/L. Besides, in series [2], the “hydroxy-L-proline detected from the reaction solution” value (“hydroxy-L-proline detected” for short) is reported as “no hydroxy-L-proline was detected” and the “Activity, Substrate: L-proline (cell spanning Km to kcat/Km)” value was “(No activity)”.

B2: KjPH: amino acid hydroxylase from Kordia jejudonensis, GenBank WP_046758372, SEQ ID NO: 18 (protein, listed as Kordia jejudonensis)
chain: MESKIIGKVNFEEHLLDKELKLIDTFEFNDSYSEYASGIWKTCMLWNRSGQKDDHLSIEHDTYVKPTEYGKQLAYVNEIIANTFKKEHIKTVRLFMCINGLIIPHKDYLEFKKGFTRIHIPLKINEHALTSEEDVVYNMQKGEIWFIEGRKIHSAANFSKVKRINLVIDFAPDIPFEELFLNSENYQPNLIPKISQRTQLKEEELGYIKGLSKIINEMNFDDILSILSKIHFYRNVSSELVFGWLDEIATASNNYNIQRKAQEVTDLLIRKGPINN
Regarding B2, the “hydroxy-L-proline detected” value in series [2] is on record as “small amount of hydroxy-L-proline was detected”.

B3: SmPH: L-proline cis-4-hydroxylase from Sinorhizobium meliloti 1021, GenBank CAC47686, SEQ ID NO: 10 (protein, listed as Sinorhizobium meliloti)
chain: MSTHFLGKVKFDEARLAEDLSTLEVAEFSSAYSDFACGKWEACVLRNRTGMQEEDIVVSHNAPALATPLSKSLPYLNELVETHFDCSAVRYTRIVRVSENACIIPHSDYLELDETFTRLHLVLDTNSGCANTEEDKIFHMGLGEIWFLDAMLPHSAACFSKTPRLHLMIDFEATAFPESFLRNVEQPVTTRDMVDPRKELTDEVIEGILGFSIIISEANYREIVSILAKLHFFYKADCRSMYDWLKEICKRRGDPALIEKTASLERFFLGHRERGEVMTY
Take B3: in series [1] (in words), the “Accumulation of (4S)-hydroxy-L-proline” value is “Accumulation of (4S)-hydroxy-L-proline was confirmed”. In series [1] (after 120 hours), the “Accumulation amount of (4S)-hydroxy-L-proline” value is listed as 0.2 mmol/L, the “Accumulation amount of (5S)-Hydroxy-L-pipecolic acid” value came out at 9.4 mmol/L and the “Accumulation amount of L-pipecolic acid” value turned out to be 5.6 mmol/L. Besides, the “hydroxy-L-proline detected” value in series [2] was “small amount of hydroxy-L-proline was detected”. In addition, the “Relative activity, Substrate: L-pipecolic acid” value in series [3] is listed as 100%. Also, in series [4], the “Relative activity, Substrate: L-proline (hydroxy-L-proline-producing activity, 100 = hydroxy-L-pipecolic acid-producing activity)” value (“Relative activity, Substrate: L-proline” for short) worked out at 46% and the “hydroxy-L-proline detected” value is given as “small amount of hydroxy-L-proline was detected”.

B4: SruPH: L-pipecolic acid cis-5-hydroxylase from Segniliparus rugosus ATCC BAA-974, GenBank EFV12517, SEQ ID NO: 4 (protein, listed as Segniliparus rugosus)
chain: MKSYSLGKFEDRSIDSLIEEASGLPDSAYSSAYQEYSIGLWDTATLWNERGNESGEVSEHAAAAAPTAIGRSTPRLNEFVRAKFNVDVLRAVRLFRARQGAIIIPHRDYLEHSNGFCRIHLPLVTTPGARNSENNEVYRMLPGELWFLDSNEVHSGGVLDSGTRIHLVLDFTHEHNENPAAVLKNADRLRPIARDPRISRSKLDHEALESLIRGGRVVTLAMWPALVQMLARIHLTSDAHPAELYDWLDDLADRSGNDELVAEARRMRRYFLTDGISRTPSFERFWRELDAARKGELVS
Regarding B4, the “Accumulation of (4S)-hydroxy-L-proline” value in series [1] (in words) is “Accumulation of (4S)-hydroxy-L-proline was confirmed”. For the same molecule, in series [1] (after 120 hours), the “Accumulation amount of (4S)-hydroxy-L-proline” value is reported as 1.8 mmol/L, the “Accumulation amount of (5S)-Hydroxy-L-pipecolic acid” value amounted to 22.5 mmol/L and the “Accumulation amount of L-pipecolic acid” value is reported as 0.1 mmol/L. In addition, the “Conversion of the substrate to (5S)-hydroxy-L-pipecolic acid” value in series [1] (incubation for 120 hours, in words) is given as “almost the entire amount of the substrate was allowed to convert to (5S)-hydroxy-L-pipecolic acid”. In addition, the “hydroxy-L-proline detected” value in series [2] is “small amount of hydroxy-L-proline was detected”. The “Relative activity, Substrate: L-pipecolic acid” value in series [3] was 100%. In series [4], the “Relative activity, Substrate: L-proline” value is on record as 59% and the “hydroxy-L-proline detected” value is “small amount of hydroxy-L-proline was detected”.

B5: CgPH: L-pipecolic acid trans-4-hydroxylase from Colletotrichum gloeosporioides Nara qc5, GenBank ELA34460, SEQ ID NO: 12 (protein)
chain: MSDKGATLDMSLFFGTPEEKGYFCTELLRLLKLRGGVKIQNHSIPDEDIHKLFDMSRKFFALPLETKMEAKHPPQANPNRGYSFIGQENVANISGYEKGLGPGKTRDIKETLDMGSAQDDLVDNLWIPEESLPGFRGFMESFYEKAFKTEMQLLSALAIALGVSEDHMKTLHNRAENEFRLLHYPAIPATELADGTATRIAEHTDFGTITMLFQDSVGGLQVEDQTQPGVFRSVESEKPTDIILNIGDSLQRLTNDTFRAACHRVTYPPAIKARDNVQIPERYSIAYFVKPNRHASLLPLKEFITDATPCRYEDVTAWEWNNRRITKLFG
modifications: Colletotrichum gloeosporioides
On to B5, for which, in series [1] (in words), the “Accumulation of (4R)-hydroxy-L-proline” value was “no accumulation of (4R)-hydroxy-L-proline was confirmed” and the “Conversion of the substrate to (4S)-hydroxy-L-pipecolic acid” value is recorded as “a major amount of the substrate was allowed to convert to (4S)-hydroxy-L-pipecolic acid”. Moreover, in series [1] (after 64 hours), the “Accumulation amount of (4R)-hydroxy-L-proline” value was determined as 0 mmol/L, the “Accumulation amount of (4S)-hydroxy-L-pipecolic acid” value is listed as 19.1 mmol/L and the “Accumulation amount of L-pipecolic acid” value was determined as 0.2 mmol/L. Moreover, in series [2], the “hydroxy-L-proline detected” value is given as “no hydroxy-L-proline was detected” and the “Activity, Substrate: L-proline (cell spanning Km to kcat/Km)” value is reported as “(No activity)”.

B6: XdPH: L-proline cis-4-hydroxylase from Xenorhabdus doucetiae FRM16, GenBank CDG16639, SEQ ID NO: 8 (protein, listed as Xenorhabdus doucetiae)
chain: MMSAKLLASIELNQEQIEHDLNIVGSEILDVAYSEYACGNWGTITLWNHSGDAGDQTSREYVGQARPTELGQQLDCINQLIRNNFNISLIKSVRIFRSYNGGAIYPHIDYLEFNQGFKRVHLVLKSDRSCLNSEENTVYHMLPGEVWFVDGHSAHSAMSLSRVGKYSLVLDFDSGAKFEDLYSESHTLCVDNLEPDIIHDRQPLPTSLRDSLAHIAEHADEFNIQSILFLATRFHFSYAVSIREYFQLLDECFSRNPYKSVRERYEALKDILVRSGYTSHNVNHFNSLSGVTIG
For the molecule B6, in series [1] (in words), the “Accumulation of (4S)-hydroxy-L-proline” value is on record as “Accumulation of (4S)-hydroxy-L-proline was confirmed”. Further, in series [1] (after 120 hours), the “Accumulation amount of (4S)-hydroxy-L-proline” value was found to be 0.3 mmol/L, the “Accumulation amount of (5S)-Hydroxy-L-pipecolic acid” value was determined as 15.2 mmol/L and the “Accumulation amount of L-pipecolic acid” value was 10.6 mmol/L. In series [2], the “hydroxy-L-proline detected” value is reported as “small amount of hydroxy-L-proline was detected”. In series [3], the “Relative activity, Substrate: L-pipecolic acid” value stood at 100%. Moreover, in series [4], the “Relative activity, Substrate: L-proline” value is given as 37% and the “hydroxy-L-proline detected” value is “small amount of hydroxy-L-proline was detected”.
